Bridge positions count the residues as written; N and C are the ends.

The experiment has as its target T1, human clots (Homo sapiens, UniProt P02671+P02675+P02679).
T1 construct: Small plasma clots from different species (human, guinea pig and mouse); tissue Dade Behring; host or cells: pooled human plasma (Control Plasma N), clotted with Pathromtin SL and CaCl2
T1 sequence (P02671 36-629 limits assumed): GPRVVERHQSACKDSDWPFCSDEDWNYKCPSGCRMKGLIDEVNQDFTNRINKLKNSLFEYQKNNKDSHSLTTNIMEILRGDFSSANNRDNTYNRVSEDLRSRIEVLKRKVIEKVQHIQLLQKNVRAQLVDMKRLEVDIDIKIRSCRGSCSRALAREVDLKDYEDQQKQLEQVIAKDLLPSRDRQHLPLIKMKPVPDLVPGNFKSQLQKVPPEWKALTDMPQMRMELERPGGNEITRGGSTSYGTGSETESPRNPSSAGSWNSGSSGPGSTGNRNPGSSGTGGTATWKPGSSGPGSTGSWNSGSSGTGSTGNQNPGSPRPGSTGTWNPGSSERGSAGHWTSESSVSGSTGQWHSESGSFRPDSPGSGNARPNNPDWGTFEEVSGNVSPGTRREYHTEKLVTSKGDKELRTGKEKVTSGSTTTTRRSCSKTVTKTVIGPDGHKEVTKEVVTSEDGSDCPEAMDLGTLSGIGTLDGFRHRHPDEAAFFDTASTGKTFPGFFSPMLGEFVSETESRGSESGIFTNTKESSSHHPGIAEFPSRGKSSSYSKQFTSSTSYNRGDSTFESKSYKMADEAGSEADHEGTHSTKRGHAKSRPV
T1 sequence (P02675 45-491 limits assumed): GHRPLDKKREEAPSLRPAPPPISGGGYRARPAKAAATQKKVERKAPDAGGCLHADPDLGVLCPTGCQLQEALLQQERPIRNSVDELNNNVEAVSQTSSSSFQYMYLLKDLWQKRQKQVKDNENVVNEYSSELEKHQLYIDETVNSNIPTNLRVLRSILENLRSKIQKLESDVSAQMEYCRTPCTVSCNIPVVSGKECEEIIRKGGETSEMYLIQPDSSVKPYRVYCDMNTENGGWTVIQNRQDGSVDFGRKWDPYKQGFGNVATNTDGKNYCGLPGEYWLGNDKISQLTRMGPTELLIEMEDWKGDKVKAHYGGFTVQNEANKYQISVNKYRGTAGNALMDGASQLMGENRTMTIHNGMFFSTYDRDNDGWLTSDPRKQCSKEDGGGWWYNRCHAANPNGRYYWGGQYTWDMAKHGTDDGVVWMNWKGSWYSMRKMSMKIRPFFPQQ
T1 sequence (P02679 27-437 isoform P02679-2 limits assumed): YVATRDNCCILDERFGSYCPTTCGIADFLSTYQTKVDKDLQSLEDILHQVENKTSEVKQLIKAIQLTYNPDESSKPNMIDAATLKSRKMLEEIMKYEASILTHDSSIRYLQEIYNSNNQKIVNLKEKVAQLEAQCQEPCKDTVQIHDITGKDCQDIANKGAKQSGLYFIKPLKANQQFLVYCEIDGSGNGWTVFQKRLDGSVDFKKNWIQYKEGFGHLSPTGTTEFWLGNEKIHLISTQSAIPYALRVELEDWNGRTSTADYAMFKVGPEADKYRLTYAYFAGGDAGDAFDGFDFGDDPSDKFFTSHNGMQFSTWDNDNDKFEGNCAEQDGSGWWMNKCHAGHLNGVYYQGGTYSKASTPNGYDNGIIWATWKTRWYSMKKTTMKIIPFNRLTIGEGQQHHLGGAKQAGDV
Briefly: In vitro MRI test of signal enhancement in plasma clots incubated with contrast agents. It is filed as binding. The protocol:
Small plasma clots from different species (human, guinea pig and mouse) ranging from 0.5-7 mm in diameter were formed by combining citrate plasma (1:3,v/v) phospholipids (Reagent Pathromtin) and CaCl2 0.008 M (Dade Behring, Germany) into small 2 ml vials at 37° C. Clots were washed 3 times with TBS 1× and incubated with contrast agents at 100 μM for 30 minutes at 37° C. Two clots were prepared for each solution of incubation. After the incubation clots were washed 4 times with TBS 1× and placed into small vials filled with TBS 1× for MRI analysis. T1-weighted 2D Spin-Echo (SE) images were acquired with the following parameters: TR/TE=400/8 ms, spatial resolution=344 μm and slice thickness=2 mm. Maximum signal intensity was measured in each image containing clot and compared to the signal from a clots incubated in TBS. […]
This protocol has been developed and used to test the specificity and efficiency of the fibrin targeted contrast agents of the invention for sensitive detection of thrombus by use of MRI. […] Signal enhancement from each sample incubated with the fibrin targeted contrast agent was evaluated and compared to a standard contrast agent ProHance®. […]
High resolution MRI was then performed by using T1-weighted Spin-Echo (SE) sequences. T1 maps were also calculated from the acquisition of 2D gradient echo images or inversion recovery spin echo images. […]

For the substance “Chelated Complex 1: Gd chelated complex (four DTPA-Glu units on branched lysine linker) conjugated to the fibrin-binding peptide; MRI contrast agent (Ac-WQPCPAESWTFCWDPGGGK-NH2; disulfide 4-12; not fully specified (some residues); also: further groups not given here)”, where the note is “human clots incubated with 100 μM complex, 30 minutes at 37° C., T1-weighted spin-echo MRI at 2T”, the “Max signal Enhancement at 100 μM” value was 100%. Further, the “signal enhancement in clots, ranking of tested compounds” value (human clots, 100 μM concentration) is reported as “maximum signal enhancement”.
